Assay results taken from publication PMC2958309 (Journal of Molecular and Cellular Cardiology, 2010).
Like-named read-outs stand apart in the source and are kept apart here.

T1: wild type sorcin (soluble resistance-related calcium binding protein) ( (human or Chinese hamster …, UniProt P05044 1-198))
T1 sequence (looked up): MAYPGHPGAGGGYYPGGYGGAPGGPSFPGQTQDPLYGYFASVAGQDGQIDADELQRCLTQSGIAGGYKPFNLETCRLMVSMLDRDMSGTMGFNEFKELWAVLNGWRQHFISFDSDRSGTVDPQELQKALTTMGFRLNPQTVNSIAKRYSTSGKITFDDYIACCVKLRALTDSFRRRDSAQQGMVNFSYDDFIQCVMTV

T2: sorcin W105G variant ( (human or Chinese hamster …, UniProt P05044 1-198, W105G))
T2 sequence (looked up): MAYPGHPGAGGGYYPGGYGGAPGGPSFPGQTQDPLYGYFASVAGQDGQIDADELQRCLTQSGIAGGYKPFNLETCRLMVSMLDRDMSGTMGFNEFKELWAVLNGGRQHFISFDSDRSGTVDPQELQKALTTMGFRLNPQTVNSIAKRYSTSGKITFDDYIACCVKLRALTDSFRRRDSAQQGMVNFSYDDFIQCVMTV


Tests used:
Assay in all cases: SPR
[1] = target: T1, wild type sorcin (soluble …)
[2] = target: T2, sorcin W105G variant
[3] = target: T1, wild type sorcin (soluble …); remark: listed apart in the source
[4] = target: T1, wild type sorcin (soluble …); remark: listed apart in the source

koff [1] [s⁻¹]	binding result [2]	Kd [3] [nM]	koff [3] [s⁻¹]	kon [3] [M⁻¹ s⁻¹]	Kd [4] [nM]	koff [4] [s⁻¹]	kon [4] [M⁻¹ s⁻¹]	Binder
0.9 ± 0.4	binds	1200	0.08 ± 0.1	70000	7000	0.27 ± 0.1	40000	NCX1 Calcium Binding Domain 1 (CBD1) (domain or fragment, Mus musculus, UniProt P70414 397-539, looked up) MAENDPVSKIFFEQGTYQCLENCGTVALTIMRRGGDLSTTVFVDFRTEDGTANAASDYEFTEGTVIFKPGETQKEIRVGIIDDDIFEEDENFLVHLSNVRVSSDVSEDGILESNHASSIACLGSPSTATITIFDDDHAGIFTF
0.6 ± 0.2		1000	0.05 ± 0.03	50000	3000	0.24 ± 0.1	80000	NCX1 Calcium Binding Domain 2 (CBD2) (domain or fragment, Mus musculus, UniProt P70414 527-712, looked up) TIFDDDHAGIFTFEEPVTHVSESIGIMEVKVLRTSGARGNVIIPYKTIEGTARGGGEDFEDTCGEPEFQNDEIVKTISVKVIDDEEYEKNKTFFIEIGEPRLVEMSEKKALLLNELGGFTLTGKEMYGQPIFRKVHARDHPIPSTVITISEEYDDKQPLTSKEEEERRIAEMGRPILGEHTKLEVI
